The values below come from patent US20110165564, “SEQUENCE-SPECIFIC DETECTION OF METHYLATION IN BIOMOLECULES” (MAX-PLANCK-GESELLSCHAFT ZUR FÖRDERUNG DER …, published 2011).

The series has as its target T1, M.HhaI (DNA cytosine-5 methyltransferase) (Haemophilus haemolyticus, UniProt P05102 P05102:1-327).
T1 sequence: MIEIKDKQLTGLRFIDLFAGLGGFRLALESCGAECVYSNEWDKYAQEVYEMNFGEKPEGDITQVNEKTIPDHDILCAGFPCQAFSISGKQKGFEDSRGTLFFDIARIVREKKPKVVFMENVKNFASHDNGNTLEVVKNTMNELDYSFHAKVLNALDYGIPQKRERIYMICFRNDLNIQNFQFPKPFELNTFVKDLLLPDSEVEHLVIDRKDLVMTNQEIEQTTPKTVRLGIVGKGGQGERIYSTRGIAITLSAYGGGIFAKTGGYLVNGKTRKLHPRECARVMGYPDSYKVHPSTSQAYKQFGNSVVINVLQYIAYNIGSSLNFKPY
Nature of the series: anion exchange HPLC; coupling of aziridine cofactors 1, 2, 3 almost complete; non-covalent M.HhaI-product DNA complex; 10 mM Tris pH 7.4, 50 mM NaCl, 37 C. The protocol: Solutions (400 μL) of aziridine cofactor 1, 2 or 3 (32 nmol, 80 μM), duplex oligodeoxynucleotide I-II (4 nmol, 10 μM) and M.HhaI (4.4 nmol, 11 μM) in buffer (10 mM Tris hydrochloride, pH 7.4, 50 mM sodium chloride, 0.05 mM ethylenediaminetetraacetic acid and 2 mM β-mercaptoethanol) were incubated at 37° C. The progress of the coupling reactions was monitored by anion exchange HPLC (Poros 10 HQ, 10 μm, 4.6×10 mm, Applied Biosystems). Compounds were eluted with aqueous potassium chloride (0.2 M for 5 min, followed by linear gradients to […], to 0.6 M in 20 min and to 1 M in 5 min) in Tris hydrochloride buffer (10 mM, pH 7.6) at a flow of 4 mL/min. […] These new compounds are assigned to non-covalent protein-DNA complexes between M.HhaI and the coupling products I¹-II, I²-II and I³-II based on their UV absorption ratio at 260 nm and 280 nm.
The presence and functionality of biotin groups in I¹-II, I²-II and I³-II were verified by addition of streptavidin. Residual aziridine cofactors 1, 2 or 3 were first removed from the labelled duplexes I¹-II, I²-II or I³-II by gel filtration using NAP-5 columns (Amersham Biosciences, Freiburg, Germany) according to the instructions of the supplier. Afterwards, streptavidin (25 μg) was added to the solutions (25 μL, 0.25 nmol I¹-II, I²-II or I³-II) and incubation was performed at 37° C. for 30 min.

B1: duplex I-II (hemimethylated) (dsDNA)
DNA 1: TGTCAGCGCATGA
DNA 2: TCATGCGCTGACA
modifications: 5mC at M in lower strand 5'-…-3'
With B1, the binding result was “binds”.
